Assay results taken from the supplement of paper PMC10567573.

B1: PDZK1 (parent)
chain: RETASLKLLPHQPRIVEMKKGSNG
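Note: lentivirally expressed fusions sorted by FACS into six bins by GFP to DsRed ratio, PSI derived from sequencing read proportions per bin multiplied by bin number.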

Variants of: B1
Assay: protein stability index of a GFP-peptide fusion (GPS, HEK-293T) (PSI 1-6); higher = more stable
Details: c terminus: a fixed tail appended
REYASLKLLPHQPRIVEMKKGSNG gave a protein stability index of 3.02. With REPASLKLLPHQPRIVEMKKGSNG the protein stability index was 3.75. With REIASLKLLPHQPRIVEMKKGSNG the protein stability index was 3.6. REDASLKLLPHQPRIVEMKKGSNG showed a protein stability index of 3.39. With REGASLKLLPHQPRIVEMKKGSNG the protein stability index was 3.27. In the case of RERASLKLLPHQPRIVEMKKGSNG, the protein stability index is reported as 3.28. In the case of REFASLKLLPHQPRIVEMKKGSNG, the protein stability index is reported as 3.08. For REQASLKLLPHQPRIVEMKKGSNG, the protein stability index was 3.41. RECASLKLLPHQPRIVEMKKGSNG gave a protein stability index of 2.35. For REHASLKLLPHQPRIVEMKKGSNG, the protein stability index was 3.31. With RESASLKLLPHQPRIVEMKKGSNG the protein stability index was 3.62. With RETASLKLLPFQPRIVEMKKGSNG the protein stability index was 3.27. With RETASLKLLPTQPRIVEMKKGSNG the protein stability index was 3.73. In the case of RETASLKLLPGQPRIVEMKKGSNG, the protein stability index is reported as 3.38. In the case of RETASLKLLPKQPRIVEMKKGSNG, the protein stability index is reported as 3.53. With RETASLKLLPMQPRIVEMKKGSNG the protein stability index was 2.75. Work on RETASLKLLPNQPRIVEMKKGSNG yielded a protein stability index of 3.38. Variant RETASLKLLPYQPRIVEMKKGSNG has a protein stability index of 3.5. RETASLKLLPQQPRIVEMKKGSNG showed a protein stability index of 3.23. RETASLKLLPWQPRIVEMKKGSNG showed a protein stability index of 3.29. For RETASLKLLPIQPRIVEMKKGSNG, the protein stability index was 3.59. In the case of RETASLKLLPCQPRIVEMKKGSNG, the protein stability index is reported as 3.47. RETASLKLLPVQPRIVEMKKGSNG gave a protein stability index of 2.59. Variant RETASLKLLPRQPRIVEMKKGSNG has a protein stability index of 3.35. Work on RETASLKLLPSQPRIVEMKKGSNG yielded a protein stability index of 3.52. RETASLKLLPPQPRIVEMKKGSNG gave a protein stability index of 3.25. RETASLKLLPDQPRIVEMKKGSNG showed a protein stability index of 2.35. Work on RETASLKLLPAQPRIVEMKKGSNG yielded a protein stability index of 2.57. RETASLKLLPLQPRIVEMKKGSNG gave a protein stability index of 3.14. Work on RETASLKLLPEQPRIVEMKKGSNG yielded a protein stability index of 3.08. With RETASLKLLLHQPRIVEMKKGSNG the protein stability index was 2.88. RETASLKLLTHQPRIVEMKKGSNG showed a protein stability index of 2.98. RETASLKLLVHQPRIVEMKKGSNG gave a protein stability index of 2.76. RETASLKLLFHQPRIVEMKKGSNG gave a protein stability index of 2.08. Variant RETASLKLLHHQPRIVEMKKGSNG has a protein stability index of 2.54. Work on RETASLKLLRHQPRIVEMKKGSNG yielded a protein stability index of 3.56. Variant RETASLKLLKHQPRIVEMKKGSNG has a protein stability index of 3.62. Variant RETASLKLLQHQPRIVEMKKGSNG has a protein stability index of 3.02. RETASLKLLEHQPRIVEMKKGSNG showed a protein stability index of 3.14. RETASLKLLGHQPRIVEMKKGSNG gave a protein stability index of 3.38. Variant RETASLKLLWHQPRIVEMKKGSNG has a protein stability index of 2.82. RETASLKLLIHQPRIVEMKKGSNG showed a protein stability index of 2.43. RETASLKLLYHQPRIVEMKKGSNG gave a protein stability index of 2.99. RETASLKLLSHQPRIVEMKKGSNG gave a protein stability index of 3.48. Work on RETASLKLLDHQPRIVEMKKGSNG yielded a protein stability index of 3.21. RETASLKLLMHQPRIVEMKKGSNG gave a protein stability index of 2.89. Variant RETASLKLLAHQPRIVEMKKGSNG has a protein stability index of 3.5. RETRSLKLLPHQPRIVEMKKGSNG showed a protein stability index of 3.88. RETYSLKLLPHQPRIVEMKKGSNG showed a protein stability index of 3.19. With RETESLKLLPHQPRIVEMKKGSNG the protein stability index was 3.43. RETWSLKLLPHQPRIVEMKKGSNG gave a protein stability index of 2.37. RETNSLKLLPHQPRIVEMKKGSNG showed a protein stability index of 3.81. In the case of RETTSLKLLPHQPRIVEMKKGSNG, the protein stability index is reported as 3.32. For RETVSLKLLPHQPRIVEMKKGSNG, the protein stability index was 3.21. Variant RETQSLKLLPHQPRIVEMKKGSNG has a protein stability index of 3.29. Variant RETFSLKLLPHQPRIVEMKKGSNG has a protein stability index of 2.66. Variant RETKSLKLLPHQPRIVEMKKGSNG has a protein stability index of 3.79. With RETCSLKLLPHQPRIVEMKKGSNG the protein stability index was 3.12. Work on RETPSLKLLPHQPRIVEMKKGSNG yielded a protein stability index of 3.8. For RETGSLKLLPHQPRIVEMKKGSNG, the protein stability index was 3.17. In the case of RETDSLKLLPHQPRIVEMKKGSNG, the protein stability index is reported as 3.15. With RETSSLKLLPHQPRIVEMKKGSNG the protein stability index was 3.17. In the case of RETISLKLLPHQPRIVEMKKGSNG, the protein stability index is reported as 2.47. Variant RETLSLKLLPHQPRIVEMKKGSNG has a protein stability index of 3.05. RETMSLKLLPHQPRIVEMKKGSNG showed a protein stability index of 3.27. RETASLKLMPHQPRIVEMKKGSNG gave a protein stability index of 3.02. RETASLKLFPHQPRIVEMKKGSNG showed a protein stability index of 3.26. With RETASLKLRPHQPRIVEMKKGSNG the protein stability index was 3.63. With RETASLKLHPHQPRIVEMKKGSNG the protein stability index was 3.42. RETASLKLKPHQPRIVEMKKGSNG showed a protein stability index of 3.99. With RETASLKLNPHQPRIVEMKKGSNG the protein stability index was 3.79. Variant RETASLKLSPHQPRIVEMKKGSNG has a protein stability index of 3.26. RETASLKLAPHQPRIVEMKKGSNG gave a protein stability index of 3.39. In the case of RETASLKLDPHQPRIVEMKKGSNG, the protein stability index is reported as 3.33. For RETASLKLGPHQPRIVEMKKGSNG, the protein stability index was 4.12. RETASLKLVPHQPRIVEMKKGSNG gave a protein stability index of 3.36. Variant RETASLKLTPHQPRIVEMKKGSNG has a protein stability index of 3.61. Work on RETASLKLYPHQPRIVEMKKGSNG yielded a protein stability index of 3. In the case of RETASLKLCPHQPRIVEMKKGSNG, the protein stability index is reported as 3.75. RETASLKLQPHQPRIVEMKKGSNG showed a protein stability index of 3.5. RETASLKLPPHQPRIVEMKKGSNG gave a protein stability index of 3. RETASLKLWPHQPRIVEMKKGSNG showed a protein stability index of 2.76. Variant RETASLKLEPHQPRIVEMKKGSNG has a protein stability index of 3.11. RETASLKLLPHCPRIVEMKKGSNG gave a protein stability index of 3.27. Work on RETASLKLLPHGPRIVEMKKGSNG yielded a protein stability index of 3.62. Work on RETASLKLLPHDPRIVEMKKGSNG yielded a protein stability index of 3.3. With RETASLKLLPHMPRIVEMKKGSNG the protein stability index was 3.38. Variant RETASLKLLPHLPRIVEMKKGSNG has a protein stability index of 3.27. Variant RETASLKLLPHIPRIVEMKKGSNG has a protein stability index of 2.85. In the case of RETASLKLLPHEPRIVEMKKGSNG, the protein stability index is reported as 2.88. Variant RETASLKLLPHKPRIVEMKKGSNG has a protein stability index of 3.66. Variant RETASLKLLPHAPRIVEMKKGSNG has a protein stability index of 3.54. In the case of RETASLKLLPHFPRIVEMKKGSNG, the protein stability index is reported as 2.97. With RETASLKLLPHHPRIVEMKKGSNG the protein stability index was 3.97.
